Measurements taken from US20190167760A1 (SWEDISH ORPHAN BIOVITRUM AB PUBL, published 2019).

Tests used:
[1] = biological target: T1, Human complement protein C5 (human, UniProt P01031 19-673; P01031 678-1676); assay: cell-based or functional assay
[2] = biological target: T1, Human complement protein C5

T1 sequence (P01031 19-673, chain 1 of 2): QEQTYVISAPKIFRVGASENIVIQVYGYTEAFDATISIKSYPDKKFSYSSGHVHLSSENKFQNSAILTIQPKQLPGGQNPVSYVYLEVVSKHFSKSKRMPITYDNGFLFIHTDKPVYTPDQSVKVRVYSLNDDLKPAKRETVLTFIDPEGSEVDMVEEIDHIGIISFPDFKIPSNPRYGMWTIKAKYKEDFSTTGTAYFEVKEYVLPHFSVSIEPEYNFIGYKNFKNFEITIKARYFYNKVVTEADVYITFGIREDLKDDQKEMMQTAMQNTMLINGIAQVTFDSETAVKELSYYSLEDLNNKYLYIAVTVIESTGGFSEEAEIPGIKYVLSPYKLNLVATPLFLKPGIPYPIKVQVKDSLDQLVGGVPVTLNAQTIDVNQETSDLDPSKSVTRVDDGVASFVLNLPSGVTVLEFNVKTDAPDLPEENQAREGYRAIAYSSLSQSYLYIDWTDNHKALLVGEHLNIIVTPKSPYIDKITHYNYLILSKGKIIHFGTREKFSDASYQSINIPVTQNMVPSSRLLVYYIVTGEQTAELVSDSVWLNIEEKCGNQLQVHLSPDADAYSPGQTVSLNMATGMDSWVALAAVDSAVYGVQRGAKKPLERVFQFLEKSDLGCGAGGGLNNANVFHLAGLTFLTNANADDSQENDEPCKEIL
T1 sequence (P01031 678-1676, chain 2 of 2): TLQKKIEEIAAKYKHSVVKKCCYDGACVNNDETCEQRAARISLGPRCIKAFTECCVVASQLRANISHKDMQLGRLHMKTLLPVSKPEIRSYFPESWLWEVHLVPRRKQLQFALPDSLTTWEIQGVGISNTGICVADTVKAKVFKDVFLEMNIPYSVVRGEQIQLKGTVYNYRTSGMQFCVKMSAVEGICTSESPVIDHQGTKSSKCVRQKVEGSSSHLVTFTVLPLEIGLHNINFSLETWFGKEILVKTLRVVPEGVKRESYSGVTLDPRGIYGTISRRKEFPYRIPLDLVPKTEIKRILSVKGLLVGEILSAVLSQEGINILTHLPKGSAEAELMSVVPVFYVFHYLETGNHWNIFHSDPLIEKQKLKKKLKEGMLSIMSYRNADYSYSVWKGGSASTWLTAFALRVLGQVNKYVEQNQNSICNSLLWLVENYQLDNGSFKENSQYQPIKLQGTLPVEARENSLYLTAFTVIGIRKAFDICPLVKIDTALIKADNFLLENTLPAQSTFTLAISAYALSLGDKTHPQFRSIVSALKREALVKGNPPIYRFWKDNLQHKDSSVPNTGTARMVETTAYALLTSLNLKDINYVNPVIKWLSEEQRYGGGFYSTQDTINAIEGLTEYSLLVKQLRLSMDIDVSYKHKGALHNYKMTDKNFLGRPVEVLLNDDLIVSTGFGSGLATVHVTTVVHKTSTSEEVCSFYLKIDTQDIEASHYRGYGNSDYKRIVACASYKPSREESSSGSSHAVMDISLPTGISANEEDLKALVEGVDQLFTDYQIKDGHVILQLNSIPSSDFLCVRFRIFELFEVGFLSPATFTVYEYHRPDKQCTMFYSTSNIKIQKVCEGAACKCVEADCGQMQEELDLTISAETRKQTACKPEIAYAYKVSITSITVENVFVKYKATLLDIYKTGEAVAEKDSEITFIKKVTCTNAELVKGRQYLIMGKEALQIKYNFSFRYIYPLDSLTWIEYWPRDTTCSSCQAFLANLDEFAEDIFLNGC

B1: Ornithodoros moubata Complement Inhibitor with a His6 tag in the C-terminus (other)
chain: MDSESDCTGSEPVDAFQAFSEGKEAYVLVRSTDPKARDCLKGEPAGEKQDNTLPVMMTFKNGTDWASTDWTFTLDGAKVTATLGNLTQNREVVYDSQSHHCHVDKVEKEVPDYEMWMLDAGGLEVEVECCRQKLEELASGRNQMYPHLKDCGGGGSENLYFQGSHHHHHH
With B1 the “IC50 of inhibition of hemolysis of antibody sensitized sheep erythrocytes” value [1] was 0.3 to 0.5 nM and the IC50 [2] was 1.5 nM.
